This passage reports self-cleavage results from the RNAGym collection of RNA variant scans (doi:10.7554/elife.80360).

First the molecules themselves.
B1: Twister Ribozyme (parent)
chain: AACACUGCCAAUGCCGGUCCCAAGCCCGGAUAAAAGUGGAGGGGGCGG

Variants of B1 are the subject of this data set. Description: self-cleavage, relative activity (ratio to wild type); higher = more cleavage; co-transcriptional.
Consider AACCCUGCCAAUGCCGGUCCCAAUCCCGGAUAAAAGUGGAGGGGGCGG, for which the self-cleavage was found to be 0.0584. As for AACACUGCCAUUGCCGGUCCCAAGCCCGGAUAAAAGUGGCGGGGGCGG, the figure is 0.161. As for AACACUGCCAAUCCCGGUCCCAAGCCCGGAUAAAAGUGGAGGGGGCUG, the figure is 0.145; as for AACACUGACAAUGCCGGUCCCAAGCCCGGAUAAAAGUGGAGCGGGCGG, 0.285.

As to AACACUCCCAAUGCCGGUCCCAAGCCCGGAGAAAAGUGGAGGGGGCGG, the self-cleavage is 0.0544. As for AACACUGCCAAUGCCGGUCCCAAGGCCGGAUAAAAGUGGAGGGGGCCG, the figure is 0.142; as for AACACUGCCAAUGCCGGUCCCAAGCCCGGAUGAAAGUGGAGGGGGGGG, 0.854; as for AACACUGCCAAUGUCGGUUCCAAGCCCGGAUAAAAGUGGAGGGGGCGG, 1.14. As for AACACUGCCAAUGCCGGUCCCAAGCCCGGAUAAAACUGGAGGGGGAGG, the figure is 0.367; as for AACACUGCCAAUGCCGGUCCCAAGCGCGGAUAAAAGUGGAGGCGGCGG, 0.141; as for AACACUGCCAAUGCCGGUCACAAGCCAGGAUAAAAGUGGAGGGGGCGG, 0.0891. As for AACACUGCCAAUGCCGGUCCCGAGCCCGGAUAAAAGUGGAGGGGCCGG, the figure is 0.124; as for AACACUGCCAAUGCCGGUCCCAAGCCCGGCUAAAAGUGGAGGGGGAGG, 0.612; as for AACACUGCCAAUACCGGUCCCAAGCCCGUAUAAAAGUGGAGGGGGCGG, 0.598. As to AACACUGCCAAUGCCGGUCCCAAGCCCUGCUAAAAGUGGAGGGGGCGG, the self-cleavage was 0.968. As to AACACCGCCAAUGCGGGUCCCAAGCCCGGAUAAAAGUGGAGGGGGCGG, the self-cleavage came to 0.1. The result for AACACUGCCAAUGCCGGUCCCAAGCCCGGAUAAAUGUGGAGGGGGCCG reads 0.694; that for AACACUGCCAAUGCCGGUCCCAAGCCCGGAUAAAAGUGGCGGGGGUGG, 0.236; that for AACACUGCCAAUGCCGGUCCCAAGCCCGGAAAAAAGUGUAGGGGGCGG, 0.168. As for AACACUGCCAAUGCCGGUCCCAAGCCCGGAUAAAAGUGGACGGCGCGG, the figure is 0.187; as for UACACUCCCAAUGCCGGUCCCAAGCCCGGAUAAAAGUGGAGGGGGCGG, 0.0703. The result for AACACUGCCAAUGCCGGUCCCAAACCAGGAUAAAAGUGGAGGGGGCGG reads 0.0771; that for AACACUGCCGAUGCCGGUCCCAAGCCCGGAUAAAAGUGCAGGGGGCGG, 0.119; that for AACACUGCCAAUGCCGGCCCCAAGCCCGGAUAAAAGAGGAGGGGGCGG, 0.197. Turning to AAAACUGCCAAUGCCGGUCCCAAGCCCGGAUAAAAGUGAAGGGGGCGG, the self-cleavage was found to be 0.0266. The result for AAGACUGCCAAUGCCGGUCCCAAGCCCGGAUAAAAGUGGAGGGAGCGG reads 0.509; that for AACACUGCCAAUGCCGGACCCAAGCCGGGAUAAAAGUGGAGGGGGCGG, 0.0805; that for AACACUGCCAUUGCCGCUCCCAAGCCCGGAUAAAAGUGGAGGGGGCGG, 0.111. The result for AACACUGACAAUGCCGGUCCGAAGCCCGGAUAAAAGUGGAGGGGGCGG reads 0.076; that for AACACUGCCAAUGCCGGUCCCAAGUCCGGACAAAAGUGGAGGGGGCGG, 0.61. As for AACACUGCCAAUGCCGGUCCCAAGCCCGGUUAAAAAUGGAGGGGGCGG, the figure is 0.762. Turning to AACACUGCCAAUGCCUGUCCCAAGUCCGGAUAAAAGUGGAGGGGGCGG, the self-cleavage was 0.809. Turning to AACACUGCCAAGGCCGGUCCCAAGCCCGGAUAAAAGCGGAGGGGGCGG, the self-cleavage is 0.593. The result for AACACUGCCAAUGCCGUUCCCAAGCCCGGUUAAAAGUGGAGGGGGCGG reads 0.485. The result for AACACUGCCAAUCCCGGUCCCAAGCCCGGGUAAAAGUGGAGGGGGCGG reads 0.502; that for AACAGUGCCAAUGCCGGUCCCCAGCCCGGAUAAAAGUGGAGGGGGCGG, 0.571; that for AACACUGCCAAUGCCCGUCCCAUGCCCGGAUAAAAGUGGAGGGGGCGG, 0.0704.

As to AACACUGCCAAUGCCGGUCCGAAGCCCGGAUAAAAAUGGAGGGGGCGG, the self-cleavage was 0.0998. In the case of AACACUGCCAGUGCCGGUCCCAAGCCCGGAUAAAAGUGGGGGGGGCGG, the self-cleavage was 0.11. The result for AACUCUGCCAAUGCCGGUCCCAAGCCCGGAUAAUAGUGGAGGGGGCGG reads 0.068; that for AACACUGCCAAUGCCGGUCGCAAGCCCGGAUAUAAGUGGAGGGGGCGG, 0.13; that for AACACUGCCAAUUCCGGUCCCAAGCCCGGAUAAAAGUGGAGGGGGCGG, 0.801. In the case of AACAAUGCCAAUGCCGGUCCCAAGCCCGGAUAAAAGUGGAGGGGGAGG, the self-cleavage came to 0.652. The result for AACACUGCCAAUGCCGCUCCCAAGCCCGGACAAAAGUGGAGGGGGCGG reads 0.115; that for AACACUGCCAAUGCCGGGCCCAAGCCCGGAUAAAAGUGGAGGAGGCGG, 0.0708. With AACCCUGCCAAUGCUGGUCCCAAGCCCGGAUAAAAGUGGAGGGGGCGG, the self-cleavage was 0.271.

Regarding AACACUCCCAAUGGCGGUCCCAAGCCCGGAUAAAAGUGGAGGGGGCGG, the self-cleavage worked out at 0.0351.

Consider AACACUUCCAAUGCCGGUCCCAAGCCCGGAUAAAAGUGGAGGGCGCGG, for which the self-cleavage is 0.0951. On to AACACUGUCAAUGCCGGUCCCAAGCCCGUAUAAAAGUGGAGGGGGCGG, for which the self-cleavage was found to be 0.577. As for AACGCUGCCAAUGCCGGUCCCAAGCCCGAAUAAAAGUGGAGGGGGCGG, the figure is 0.819.

On to AACACUGCCAAUGCCGGUCCCAAGCCCUGAUAAAAGAGGAGGGGGCGG, for which the self-cleavage is 0.348. The result for AACACUACCAAUGCCGGGCCCAAGCCCGGAUAAAAGUGGAGGGGGCGG reads 0.066; that for AACACUGCCAAUGUCGAUCCCAAGCCCGGAUAAAAGUGGAGGGGGCGG, 0.538; that for AACACUGCCAAUGCCGUUCCCAAGCCCGGACAAAAGUGGAGGGGGCGG, 0.495. Take AACACUACCAAUGCCGGUCCCAAGCCCGGAUAAAAGUGGAAGGGGCGG: the self-cleavage was 0.122.

In the case of AACACUGCCAAUGCCCGUCCCAAGCCCGGAUAAAAGUGGAGGGGGCCG, the self-cleavage was 0.268. As for AACACUGCCAAUGCCGGUCCCAAGCCCGGAUAGAAGUGGAGGGGGCUG, the figure is 0.927; as for AUCACUGCCACUGCCGGUCCCAAGCCCGGAUAAAAGUGGAGGGGGCGG, 0.309; as for AAAACUGCCAAUGCCGGUCCCAAGCCCGGAUAAAAGUGGAGGAGGCGG, 0.0599. The result for AACACUACCAAUGCCCGUCCCAAGCCCGGAUAAAAGUGGAGGGGGCGG reads 0.084. As for AACACUGCCAAUGCCGGUCCCAGGCCCGGAUAAAAGUGCAGGGGGCGG, the figure is 0.102; as for AACACUGCCAAUGCCGGUCCCAACCCCGGAUAAAAGUGGAGGGGGCGG, 0.102; as for AACACUGCCAAUGCCGGUCCCAAUCCCGGAUAAAAGUGGAGGGGGCGG, 0.128. On to AACACCGCCAAUGCCGGUCCCAAGCCCGGAUAAAAGUGGAAGGGGCGG, for which the self-cleavage amounted to 0.117. The result for ACCACUGCCAAUGCUGGUCCCAAGCCCGGAUAAAAGUGGAGGGGGCGG reads 0.088; that for AACACUGCCAAUGCCGGUCCCAAGCCCCGAUAAAACUGGAGGGGGCGG, 0.173.

Consider AACACCGCCAAUGCCGGUCCCAAGCCCGGAUAAAAGUGGAGGGGCCGG, for which the self-cleavage amounted to 0.206. Take AAGACUGCCAAUGCCGGUCCCAAGCCCGGAUAAAAGUGGAGGGGGGGG: the self-cleavage turned out to be 0.568. The result for AACACUGCCAAUGCCGCUCCCAAGCCCGGAUAAAAGUCGAGGGGGCGG reads 0.054. As for AACCCUGCCAAUGGCGGUCCCAAGCCCGGAUAAAAGUGGAGGGGGCGG, the figure is 0.0948; as for ACCACUGCCAAUGCCGGUCCCAAGCCCGGAUAAAAGGGGAGGGGGCGG, 0.057. As for AACACUGCCAAUGCCGAUCACAAGCCCGGAUAAAAGUGGAGGGGGCGG, the figure is 0.0884. For AACUCUGCCAAUGCCGGUCCCAAGCCCGGAUAAAAGUGGAGGGGGGGG, the self-cleavage was 0.105. The result for AACACUGCCAAUGCCGGUCCCAAGCCCGGAUAAGAGUGGAGGGGGCCG reads 0.193; that for AACACUGCCAAUGCCGGUCCCAAGCCCGGAUAAAAAUGGAGGGAGCGG, 0.8. As for AACACUGACAAUGCCGGUCCCAAACCCGGAUAAAAGUGGAGGGGGCGG, the figure is 0.18; as for AGCACAGCCAAUGCCGGUCCCAAGCCCGGAUAAAAGUGGAGGGGGCGG, 0.192. As for AACACUGCCAAUGCCGGUCCCAAGCCCGGAGAAUAGUGGAGGGGGCGG, the figure is 0.904; as for AACACUGCCAAUGCCGGUCCCAAGCCCGGAUAAAAGUGGGGGGGGCGG, 0.153; as for AACACAGCCAAUGCCGGUCCCAAGCCCGGAUCAAAGUGGAGGGGGCGG, 0.753. Regarding GACACUGCCAAUGCCGGUCCCAAGCCCGGAUAAAAGUGGAGGGGACGG, the self-cleavage was 0.32.

For the variant AACACUGCCACUGCCGGCCCCAAGCCCGGAUAAAAGUGGAGGGGGCGG, the self-cleavage came to 0.154. The result for AACACUGCCAAUGCCGGUCCCAAGCCCGGAUACAACUGGAGGGGGCGG reads 0.101; that for AACACUGCCAAUGCCGGUCCCAAGCCUGGAUAGAAGUGGAGGGGGCGG, 0.702. The result for AACACUGCCAAUGCCGGACCCAAGCCCGGAUAAAAGUGGAGGGGGCGU reads 0.419. As for AACACUGCCAAUGCCGGUCCCAUACCCGGAUAAAAGUGGAGGGGGCGG, the figure is 0.0917; as for AACACUGCCAAUGCCGGUCGCAAGCCCGGCUAAAAGUGGAGGGGGCGG, 0.0614; as for AACACUGCCAAUGCCGGUCCCAUGCCCGGAUAAAAUUGGAGGGGGCGG, 0.0806. For AACUCUGCCAAUGCCGGUCCCAAGCCCGAAUAAAAGUGGAGGGGGCGG, the self-cleavage came out at 0.173. As to AACGCUGCCAAUGCCGGUCACAAGCCCGGAUAAAAGUGGAGGGGGCGG, the self-cleavage came to 0.14. The result for AACACUGUCAAUGCCGGUCCCAAGCCCGGAUAAAAGGGGAGGGGGCGG reads 0.382. The result for AACACUGCCAAUGCCGGUCCCAAGCCCGGACAAAAGUGGAGGGGGAGG reads 0.733; that for AACACUGACAAUGCCGGUCCCAAGCCCGGAUAAAAGUGGAGGGGGCGC, 0.346; that for AACACUGCCAAUGCCGGUCCCAAGACCGGAAAAAAGUGGAGGGGGCGG, 0.0924. As for AACACUGCCAAUUCCGGUCCCAAGACCGGAUAAAAGUGGAGGGGGCGG, the figure is 0.0642; as for AACACUGCCAACGCCGGUCCCAAGCCCGGAUAAAAGUGGAGGGGGAGG, 0.903; as for AACACUGCCAAUGCCGGUCCCAAGCCCGGUUAAUAGUGGAGGGGGCGG, 0.85. For AACACUGCCAAUGCUGGUCCCAAGCCCGGAUAAAAGUGUAGGGGGCGG, the self-cleavage is 0.27. Consider AACACUGCCAAUGCUGGUCCCUAGCCCGGAUAAAAGUGGAGGGGGCGG, for which the self-cleavage was 0.703. The result for AACACUGCCAAUGCCGGUCCCAAGCCCGGGUAAGAGUGGAGGGGGCGG reads 0.761; that for AACACUGCCAAUGCCGGUCCCAAUCCCGGAUAAAAGUGGAGGGUGCGG, 0.097; that for AACACUGCCAAUGCCGGUCCCAAGCCCGUAUAAAAGUGGAGGGGGCGG, 0.937. The result for AACACUGCCAAUGCGUGUCCCAAGCCCGGAUAAAAGUGGAGGGGGCGG reads 0.814. The result for AGCACUGCCAAUGCCGGUCCCAAACCCGGAUAAAAGUGGAGGGGGCGG reads 0.082; that for AACACUGCCCAUGCCGGUCCCAGGCCCGGAUAAAAGUGGAGGGGGCGG, 0.453; that for AACACUGACAAUGCCGGUCCCAAGCCGGGAUAAAAGUGGAGGGGGCGG, 0.0579. Consider AACACUGCAAAUGCCGGUCCCAAGCCCGGAUAAAAGUGGAGGGGGCUG, for which the self-cleavage was found to be 0.244.

Consider AACACUGCCAAUGCCGGUCCCAAGCCCGGGUAAAAGUGGAGGGUGCGG, for which the self-cleavage stood at 0.887.
